A short description of the data set: soluble on expression in E. coli; label from the status in PepcDB or PDB records.
For the sequence “MKIQDYTKEMVDEKSFIDMAYTLLNDKQTTMNLYDIIDEFKSLGGYEYEDIENRIVQFYTDLNTDGRFLNVGENLWGLRDWYSVDDIEEKIAPTIQKFDILDDEDEEDQNLKLLGDDDADEDDDIPAQTDDQETLDESDNDEDDVEMNEADIVIDEDEDEDIAEGEEEAFEDAEDFND”, the “soluble on expression in E. coli” value was “not soluble”.
On to “MEDELEKYKRENADLKKEIERLKNSSASNTYKVIFEASPDILIQLNADYKIIVIHIPNIEEERVNTVVGKDIFDVTPEYTHVKMKNALTSVFRDGEVVKYFSEGETMGSYRYYDNYLSPIKDAEGNITTVYFRSRDIT”, for which the “soluble on expression in E. coli” value is reported as “not soluble”.
On to “MKGLYFQQSSTDEEITFVFQEKEDLPVTEDNFVKLQVKACALSQINTKLLAEMKMKKDLFPVGREIAGIVLDVGSKVSFFQPDDEVVGILPLDSEDPGLCEVVRVHEHYLVHKPEKVTWTEAAGSIRDGVRAYTALHYLSHLSPGKSVLIMDGASAFGTIAIQLAHHRGAKVISTACSLEDKQCLERFRPPIARVIDVSNGKVHVAESCLEETGGLGVDIVLDAGVRLYSKDDEPAVKLQLLPHKHDIITLLGVGGHWVTTEENLQLDPPDSHCLFLKGATLAFLNDEVWNLSNVQQGKYLCILKDVMEKLSTGVFRPQLDEPIPLYEAKVSMEAVQKNQGRKKQVVQF”, for which the “soluble on expression in E. coli” value is “soluble”.
On to “MFLKVRAEKRLGNFRLNVDFEMGRDYCVLLGPTGAGKSVFLELIAGIVKPDRGEVRLNGADITPLPPERRGIGFVPQDYALFPHLSVYRNIAYGLRNVERVERDRRVREMAEKLGIAHLLDRKPARLSGGERQRVALARALVIQPRLLLLDEPLSAVDLKTKGVLMEELRFVQREFDVPILHVTHDLIEAAMLADEVAVMLNGRIVEKGKLKELFSAKNGEVAEFLSARNLLLKVSKILD”, for which the “soluble on expression in E. coli” value was “soluble”.
“MAKVTVILTSYNKPNTVGAAIESVLSQSFQDWELWIMDDASNEETQQVIDSYMLYPNVYYYNSQVKDEERHKSTRYATLINEAISRSTGDYLCYLTDDNYYLPERLQKMVQYLERYPSVDVVYSKQLVRTVDNQLITQAERIRPTKGTIRYAENIVDHCSVMHRRSLAEKVYETYGSYWNDDPICWHNGDAFFWNRLSAFALFYPINEVLDVCLKSPTSFQALNAFLPEYLPSGTLVKGLGADVYLIEDNHRRAITPTMFQQLHYREENVVHIPDPVLFKYKEGPAIDEHIWEQGKLFPNHRLIKASQEPHIYYVENHRKRHILTHKEFRLYKFRASEVVEVSRSFLDSIPTGPPISAHVNNQHPLPEGLLVRCGFKFYLSGNNRLYPIKSRVMKKLNLQMKNAVFLDSRAIGRYEQGETIEWKTNKCQPRFNTSSLEHHHHHH”: the “soluble on expression in E. coli” value is recorded as “not soluble”.
Turning to “AIADTGELHDLTVKGAVVTQLERCEVACQRLFQNLALLGLELQNSESITEGVCDSKAASDLGSSVELLENEERALRLCVDRFVLELRQVENLAKTLDGIREEEERILSLEQRSIEQAERCFYLWNDAREMLRGTRLTSIKEVLESAARYPRIPSWTPLPTSN”, the “soluble on expression in E. coli” value was “soluble”.
Consider “MGKENLYVVLPSYNEEANIGKLINEWNVQFKDLEARGIKLEIIIVNDGSTDNTLAVAEAFSKHNDNVVVIDHGVNKGLGEGLNTGINYVLSQKQKGYMCLMDGDMTHEPKYIFSMLDKLQEEKLDCVIASRYRRGAKVEGLSLFRKFLSFGARVLYTIRLGIPNVRDYTCGYRLYKTSVLEKLHKVYGKRIVKETGFACMMELIVKVSKENFKIGEVPFVLKYQLKGGESKMKVGKTIKRSLLLLRVYK”, for which the “soluble on expression in E. coli” value is given as “soluble”.
Regarding “MAGDPMKNILIFPFLSISTGHHHVADALQAELESQGLAAEKIDIFSHSYRRLEKLSSVAYLKWIQYFPKTYSGIYRLLACGEFQHDKRYFMYECVFTQQMRHILQEKQPDIAFCTHALPSYLLNRLKPEYPNLTVVNVYTDFFVNQLWGRKNIDYHFVPSTEVKKQLISEGIDQNNIYLTGIPVHQNFEMESADTLQHHPPYTIIITGGSMGVGGILKWVQELSPGGKILYKILCGRNEKLYSYVKSLHHPLIEAIPYLHSKAEMNRLYEQATGIMTKPGGVTISECLQKRLPVFIYHALPGQEEMNLNLLHERKLVTDMRNWDMQKAEEYIAAFFQSNEQMKEYKKHVNGYLGEMSDRKIKDVLKRIIWKQKNTLLKLEHHHHHH”, the “soluble on expression in E. coli” value is “not soluble”.
“MFEDLLQTKRLIKSYYYYPKLVLVINIAEYLYSKGRDVCIFNFDKIKWEYYPYNLNFHMKCNERSENIIFEAEDESEIPNNFSLVTSIKKLNLGIPQSEIQKLDQNLFKINIDNKIYLFRIIEGKIVEEKIKGLSEEIINILREYNELSLKEIVDILYHKTNSSRDNIRKEIYFLKDIGVIEIKNGKVLLNNNSWLKR”: the “soluble on expression in E. coli” value is recorded as “soluble”.
The result for “MTTLRTLMAVSLVLNLAACGFKLRGQVSELPFERVYITAPAGLTIGSDLERVISTHTRAKVVNKAEKSEAIIQIVHAIREKRILSLSESGRVREFELVYRVAARLLDAHNAELASLQEIRLTRILPFLDAQELAKAAEEEMLYKDMQKDAVQQILRQVSAVTSAGLEHHHHHH” reads “not soluble”.
As for “MEKFRVIGSTQPLQGEVTISGAKNAALPILFASILAEEPVEVANVPHLRDIDTTMELLERLGAKVERNGSVHVDAGPINQYCAPYDLVKTMRASIWALGPLVARFGQGQVSLPGGCAIGARPVDLHIHGLEQLGATITLEDGYVKAHVDGRLQGAHIVMDKVSVGATITIMCAATLAEGTTVLDNAAREPEIVDTAMFLNKLGAKISGAGTDSITIEGVERLGGGKHAVVPDRIETGTFLVAAAVSRGKIVCRNTHAHLLEAVLAKLEEAGAEIECGEDWISLDMTGRELKAVTVRTAPHPGFPTDMQAQFTLLNMMAKGGGVITETIFENRFMHVPELKRMGAKAEIEGNTVICGDVDRLSGAQVMATDLRASASLVIAGCIAKGETIVDRIYHIDRGYERIEDKLSALGANIERFRD”, the “soluble on expression in E. coli” value was “not soluble”.
The result for “MEDKRLIREKILRNLNSIDKVEHRERSIKLAEKLFLLPEWENAKVVGITLARHPEIETEAIILQAKKEGKTILIPKTYYPSRKMEFKKMDSIHPLIKSKFGILEPNELAETVDKKVIDLLIVPGVAFNKDHYRIGFGGGFYDRFLTDFQGHTVSLYLYEQQIEFTPETHDEPVSILIGGLEHHHHHH” reads “not soluble”; that for “MHRGGQPLKKRRGSFKMAELDQLPDESSSAKALVSLKEGSLSNTWNEKYSSLQKTPVWKGRNTSSAVEMPFRNSKRSRLFSDEDDRQINTRSPKRNQRVAMVPQKFTATMSTPDKKASQKIGFRLRNLLKLPKAHKWCIYEWFYSNIDKPLFEGDNDFCVCLKESFPNLKTRKLTRVEWGKIRRLMGKPRRCSSAFFEEERSALKQKRQKIRLLQQRKVADVSQFKDLPDEIPLPLVIGTKVTARLRGVHDGLFTGQIDAVDTLNATYRVTFDRTGLGTHTIPDYEVLSNEPHETMPIAAFGQKQRPSRFFMTPPRLHYTPPLQSPIIDNDPLLGQSPWRSKISGSDTETLGGFPVEFLIQVTRLSKILMIKKEHIKKLREMNTEAEKLKSYSMPISIEFQRRYATIVLELEQLNKDLNKVLHKVQQYCYELAPDQGLQPADQPTDMRRRCEEEAQEIVRHANSSTGQPCVENENLTDLISRLTAILLQIKCLAEGGDLNSFEFKSLTDSLNDIKSTIDASNISCFQNNVEIHVAHIQSGLSQMGNLHAFAANNTNRD”, “soluble”.
As for “MIKQNSFVPYPEAMLPKGFKYPQSYLKLAQSTHAINYDEQYSFPWWFENAESNISEVIDIYFEITGIPNLLPFARNQEWAACFDISDKSGNPKIIVVNLDNTKYYETFENFDTWLKEAENDGW”, the entry is “soluble”; as for “MGSDKIHHHHHHMSKRLLLFDFDETYFKHNTNEEDLSHLREMEKLLEKLTNNNEVITAVLTGSTFQSVMDKMDQVNMTFKPLHIFSDLSSKMFTWNNGEYVESETYKKKVLSEPFLFEDIEDILRHISAQYNVEFIPQRAFEGNETHYNFYFHSTGNHNNDSRILEALVRYANDQNYTARFSRSNPLAGDPENAYDIDFTPSNAGKLYATQFLMKKYNIPVKSILGFGDSGNDEAYLSYLEHAYLMSNSRDEALKQKFRLTKYPYYQGITLHVKEFVEGKYDY”, “not soluble”; as for “MGSDKIHHHHHHMKITKVECIPVSMPLKKPLRLPNVTITKLDTLLLRLHTETGLVGIAESGDTSSWYRGESQASMVSMICDIFAPRILLGEDPCNIEKIVGAMDTLARDNNQAKGLVDCALHDLKGKVLNVPVYQLLGGRTRESAPLGWVLSAGEPDKVAEAALSAREAGFVAFKLKVGRGTFDNDVATAAAVRKALGDSARICLDANGSWNYEQALRTIRRLDAYRLDFVEQPLPHWDIEGMARLRQRIDTPVYADEAAQELHHLKEIAERRAADGVILKVQKVGGLLKAQRFLAVAQMFDLPVMCSTLIGSGVEACPTAHLWVANQWACQFISESTGPLAVHGVWNSEDIPQGADLALQGARFHRGHVSPGDGPGLGVELNEALLGQIRTEGRPARVVNL”, “not soluble”.
For the sequence “MAIKLIAIDMDGTLLLPDHTISPAVKNAIAAARARGVNVVLTTGRPYAGVHNYLKELHMEQPGDYCITYNGALVQKAADGSTVAQTALSYDDYRFLEKLSREVGSHFHALDRTTLYTANRDISYYTVHESFVATIPLVFCEAEKMDPNTQFLKVMMIDEPAILDQAIARIPQEVKEKYTVLKSAPYFLEILDKRVNKGTGVKSLADVLGIKPEEIMAIGDQENDIAMIEYAGVGVAMDNAIPSVKEVANFVTKSNLEDGVAFAIEKYVLN”, the “soluble on expression in E. coli” value was “not soluble”.
Consider “MGSDKIHHHHHHMKNALIQSGPDTTGRRPSRKVLIYGLNYAPELTGIGKYSAEMAESLADVGYEVRVICAPPYYPEWRIGAGHSAWRYRTEQRAAVRIQRAPVWVPSRPSGLKRLLHLASFAVSSLPTVFAQLFWRPDIVIAVAPSLMNIPAALMFGKMARARTWLHIQDYEVDAAFELGMLKGKRLRQFALGVESWLMRRFDVVSTISARMIEHGRNKGVDSPRLFALPNWVDVNVIFPLDRPSLYRTALNIPDEAIVVLYSGNMGAKQGIEVLAQAAASLAHRSDIHFVLCGDGPYKVNLVEQCGHLANCTFLSLQPFDKLNDLLNVADIHVLPQRADAADLVMPSKLTGMLASGRSIIAMARAGTELFDVVSPRGVTVPPEDVQALVAAIENLADDVDQRTRLGAAARAYAETELSRRAVIERLDGRFQMLCDRVRGRSVFT”, for which the “soluble on expression in E. coli” value is listed as “not soluble”.
As for “QADMPLERIIEAEKRVECNDPLVALVVNENNTTVNNICQATHKQLFQLVQWAKLVPHFTSLPLTDQVQLLRAGWNELLIAAFSHRSMQAQDAIVLATGLTVNKSTAHAVGVGNIYDRVPSELVNKMKEMKMDKTELGCLRAIILYNPDVRGIKSVQEVEMLREKIYGVLEEYTRTTHPNEPGRFAKLLLRLPALRSIGLKCLEHLFFFKLIGDVPIDTFLMEMLEGTTDS”, the “soluble on expression in E. coli” value is recorded as “soluble”.
As to “MCAVLRQPKCVKLRALHSACKFGVAARSCQELLRKGCVRFQLPMPGSRLCLYEDGTEVTDDCFPGLPNDAELLLLTAGETWHGYVSDITRFLSVFNEPHAGVIQAARQQLSDEQAPLRQKLLADLLHHVSQNITAETREQDPSWFEGLESRFRNKSGYLRYSCESRIRGYLREVSAYTSMVDEAAQEEYLRVLGSMCQKLKSVQYNGSYFDRGAEASSRLCTPEGWFSCQGPFDLESCLSKHSINPYGNRESRILFSTWNLDHIIEKKRTVVPTLAEAIQDGREVNWEYFYSLLFTAENLKLVHIACHKKTTHKLECDRSRIYRPQTGS”, the “soluble on expression in E. coli” value is listed as “soluble”.
Turning to “GDEEKRNRAITARRQHLKSVMLQIAATELEKEEGRREAEKQNYLAEH”, the “soluble on expression in E. coli” value is recorded as “soluble”.
In the case of “MRSHNLFGDMCEAFMTKYVMTELRPKTQTLYKSTFNKYVTPYKNIDIERYKYTDWIAYFDWVKKESSSANAGSVLKRFKAVANWAKARGQIKHSHLIDIPIKLEHHHHHH”, the “soluble on expression in E. coli” value is recorded as “not soluble”.

These data come from the DeepSol protein solubility set.
